Reference: patent US20060269536A1 (UNIVERSITE DE LAUSANNE, published 2006)

Experiments:
[1] = target: Human chymotrypsin (Chtr) (human, UniProt P17538 19-263); experiment: cell-based or functional assay
[2] = target: human glandular kallikrein hK2 (human, UniProt P20151 25-261); experiment: cell-based or functional assay
[3] = target: T1, human neutrophil elastase (HNE) (human, UniProt P08246 30-247, limits assumed); experiment: cell-based or functional assay
T1 sequence (looked up): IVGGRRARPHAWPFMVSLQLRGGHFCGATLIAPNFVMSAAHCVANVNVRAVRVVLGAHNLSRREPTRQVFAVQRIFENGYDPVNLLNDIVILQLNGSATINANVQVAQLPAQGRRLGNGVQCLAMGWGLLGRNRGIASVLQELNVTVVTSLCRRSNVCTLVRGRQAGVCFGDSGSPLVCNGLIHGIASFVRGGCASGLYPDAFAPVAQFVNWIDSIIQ

[4] = target: human plasma kallikrein (PK) (human, UniProt P03952 20-638); experiment: cell-based or functional assay
[5] = target: human kallikrein hK1 (human, UniProt P06870 25-262); experiment: cell-based or functional assay
[6] = target: urokinase plasminogen activator (uPA) (UniProt P00749 21-431, limits assumed); experiment: cell-based or functional assay
[7] = target: T2, hK3 (PSA) (human, UniProt P07288 25-261); experiment: cell-based or functional assay
[8] = target: T2, hK3 (PSA); experiment: Western blot of hK3-ACT complex, anti-His antibody (FIG. 6B)
Procedure: For each variants of ACT, 1 μg of inhibitor was incubated with 100 ng of either hK2 or hK3 during 1 hour at 37° C. under physiological conditions.

T2 sequence (P07288 25-261 limits assumed): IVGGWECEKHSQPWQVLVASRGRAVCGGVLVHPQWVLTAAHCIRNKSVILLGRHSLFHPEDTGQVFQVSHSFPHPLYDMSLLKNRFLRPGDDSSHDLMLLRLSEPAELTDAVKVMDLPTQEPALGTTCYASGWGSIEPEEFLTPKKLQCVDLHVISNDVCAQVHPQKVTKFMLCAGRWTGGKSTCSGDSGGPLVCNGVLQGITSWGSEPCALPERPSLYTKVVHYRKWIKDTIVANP
Chain of Human chymotrypsin (Chtr) (P17538 19-263): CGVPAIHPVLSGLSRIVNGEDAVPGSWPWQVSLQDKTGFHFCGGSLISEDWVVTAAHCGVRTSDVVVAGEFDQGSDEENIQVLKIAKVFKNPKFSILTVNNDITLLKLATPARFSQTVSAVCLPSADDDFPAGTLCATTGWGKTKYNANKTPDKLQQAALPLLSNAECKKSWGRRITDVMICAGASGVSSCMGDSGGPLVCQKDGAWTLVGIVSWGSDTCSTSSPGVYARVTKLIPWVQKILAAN
Chain of human plasma kallikrein (PK) (P03952 20-638 limits assumed): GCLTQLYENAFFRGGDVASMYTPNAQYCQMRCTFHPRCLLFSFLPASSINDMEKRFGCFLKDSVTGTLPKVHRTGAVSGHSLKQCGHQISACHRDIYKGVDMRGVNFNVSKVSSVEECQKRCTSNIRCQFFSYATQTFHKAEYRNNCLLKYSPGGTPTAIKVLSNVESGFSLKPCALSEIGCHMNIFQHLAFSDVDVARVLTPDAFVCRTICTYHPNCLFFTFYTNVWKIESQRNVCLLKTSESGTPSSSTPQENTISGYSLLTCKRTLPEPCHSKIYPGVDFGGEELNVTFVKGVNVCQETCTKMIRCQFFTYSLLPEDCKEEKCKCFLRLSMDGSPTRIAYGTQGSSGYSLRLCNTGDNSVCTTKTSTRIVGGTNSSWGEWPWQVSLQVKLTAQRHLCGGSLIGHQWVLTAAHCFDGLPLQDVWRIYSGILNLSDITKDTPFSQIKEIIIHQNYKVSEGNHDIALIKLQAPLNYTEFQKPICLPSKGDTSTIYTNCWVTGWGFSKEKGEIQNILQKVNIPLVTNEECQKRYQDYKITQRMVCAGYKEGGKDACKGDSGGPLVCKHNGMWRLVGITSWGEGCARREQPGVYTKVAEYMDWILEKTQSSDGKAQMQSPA
Chain of human kallikrein hK1 (P06870 25-262): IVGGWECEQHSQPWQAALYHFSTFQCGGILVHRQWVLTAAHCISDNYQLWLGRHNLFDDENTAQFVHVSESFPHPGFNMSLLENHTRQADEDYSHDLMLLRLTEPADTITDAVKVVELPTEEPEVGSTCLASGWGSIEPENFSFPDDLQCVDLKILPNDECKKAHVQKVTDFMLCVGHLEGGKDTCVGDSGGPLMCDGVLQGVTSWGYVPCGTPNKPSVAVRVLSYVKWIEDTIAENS

B1: rACT8.20 (designed binder)
chain: MRGSHHHHHHSRHPNSPLDEENLTQENQDRGTHVDLGLASANVDFAFSLYKQLVLKAPDKNVIFSPLSISTALAFLSLGAHNTTLTEILKGLKFNLTETSEAEIHQSFQHLLRTLNQSSDELQLSMGNAMFVKEQLSLLDRFTEDAKRLYGSEAFATDFQDSAAAKKLINDYVKNGTRGKITDLIKDLDSQTMMVLVNYIFFKAKWEMPFDPQDTHQSRFYLSKKKWVMVPMMSLHHLTIPYFRDEELSCTVVELKYTGNASALFILPDQDKMEEVEAMLLPETLKRWRDSLEFREIGELYLPKFSISRDYNLNDILLQLGIEEAFTSKADLSGITGARNLAVSQVVHKAVLDVFEEGTEASAATAVKITLRSRAVETRTIVRFNRPFLMIIVPTDTQNIFFMSKVTNPKQA
- Inhibition % (residual enzyme activity, fluorescent substrate) [1]: 66%
- Inhibition % (residual enzyme activity, fluorescent substrate) [2]: 95%
- Inhibition % (residual enzyme activity, fluorescent substrate) [3]: 30%
- Inhibition % (residual enzyme activity, fluorescent substrate) [4]: 54%
- Inhibition % (residual enzyme activity, fluorescent substrate) [5]: 0%
- Inhibition % (residual enzyme activity, fluorescent substrate) [6]: 0%

B2: ACT5.18 (designed binder)
chain: MRGSHHHHHHSRHPNSPLDEENLTQENQDRGTHVDLGLASANVDFAFSLYKQLVLKAPDKNVIFSPLSISTALAFLSLGAHNTTLTEILKGLKFNLTETSEAEIHQSFQHLLRTLNQSSDELQLSMGNAMFVKEQLSLLDRFTEDAKRLYGSEAFATDFQDSAAAKKLINDYVKNGTRGKITDLIKDLDSQTMMVLVNYIFFKAKWEMPFDPQDTHQSRFYLSKKKWVMVPMMSLHHLTIPYFRDEELSCTVVELKYTGNASALFILPDQDKMEEVEAMLLPETLKRWRDSLEFREIGELYLPKFSISRDYNLNDILLQLGIEEAFTSKADLSGITGARNLAVSQVVHKAVLDVFEEGTEASAATAVKITERVSPVETRTIVRFNRPFLMIIVPTDTQNIFFMSKVTNPKQA
- Inhibition % (residual enzyme activity, CFP-TFRSA-YFP substrate, 90 min at 37°) [7]: 0%
- Inhibition % (residual enzyme activity, fluorescent substrate) [1]: 0%
- Inhibition % (residual enzyme activity, fluorescent substrate) [2]: 73%
- Inhibition % (residual enzyme activity, fluorescent substrate) [3]: 0%
- Inhibition % (residual enzyme activity, fluorescent substrate) [4]: 0%
- Inhibition % (residual enzyme activity, fluorescent substrate) [5]: 0%
- Inhibition % (residual enzyme activity, fluorescent substrate) [6]: 0%

B3: rACT6.1 (designed binder)
chain: MRGSHHHHHHSRHPNSPLDEENLTQENQDRGTHVDLGLASANVDFAFSLYKQLVLKAPDKNVIFSPLSISTALAFLSLGAHNTTLTEILKGLKFNLTETSEAEIHQSFQHLLRTLNQSSDELQLSMGNAMFVKEQLSLLDRFTEDAKRLYGSEAFATDFQDSAAAKKLINDYVKNGTRGKITDLIKDLDSQTMMVLVNYIFFKAKWEMPFDPQDTHQSRFYLSKKKWVMVPMMSLHHLTIPYFRDEELSCTVVELKYTGNASALFILPDQDKMEEVEAMLLPETLKRWRDSLEFREIGELYLPKFSISRDYNLNDILLQLGIEEAFTSKADLSGITGARNLAVSQVVHKAVLDVFEEGTEASAATAVKIMTRSNAVETRTIVRFNRPFLMIIVPTDTQNIFFMSKVTNPKQA
notes: N-terminal His tag, E. coli TG1; also called MD61; MD 61
- binding result [8]: no binding
- Inhibition % (residual enzyme activity, CFP-TFRSA-YFP substrate, 90 min at 37°) [7]: 0%
- Inhibition % (residual enzyme activity, fluorescent substrate) [1]: 0%
- Inhibition % (residual enzyme activity, fluorescent substrate) [2]: 100%
- Inhibition % (residual enzyme activity, fluorescent substrate) [3]: 60%
- Inhibition % (residual enzyme activity, fluorescent substrate) [4]: 100%
- Inhibition % (residual enzyme activity, fluorescent substrate) [5]: 0%
- Inhibition % (residual enzyme activity, fluorescent substrate) [6]: 0%

B4: rACT6.7 (designed binder)
chain: MRGSHHHHHHSRHPNSPLDEENLTQENQDRGTHVDLGLASANVDFAFSLYKQLVLKAPDKNVIFSPLSISTALAFLSLGAHNTTLTEILKGLKFNLTETSEAEIHQSFQHLLRTLNQSSDELQLSMGNAMFVKEQLSLLDRFTEDAKRLYGSEAFATDFQDSAAAKKLINDYVKNGTRGKITDLIKDLDSQTMMVLVNYIFFKAKWEMPFDPQDTHQSRFYLSKKKWVMVPMMSLHHLTIPYFRDEELSCTVVELKYTGNASALFILPDQDKMEEVEAMLLPETLKRWRDSLEFREIGELYLPKFSISRDYNLNDILLQLGIEEAFTSKADLSGITGARNLAVSQVVHKAVLDVFEEGTEASAATAVKIKLRTTLVETRTIVRFNRPFLMIIVPTDTQNIFFMSKVTNPKQA
- Inhibition % (residual enzyme activity, CFP-TFRSA-YFP substrate, 90 min at 37°) [7]: 0%
- Inhibition % (residual enzyme activity, fluorescent substrate) [1]: 0%
- Inhibition % (residual enzyme activity, fluorescent substrate) [2]: 100%
- Inhibition % (residual enzyme activity, fluorescent substrate) [3]: 0%
- Inhibition % (residual enzyme activity, fluorescent substrate) [4]: 36%
- Inhibition % (residual enzyme activity, fluorescent substrate) [5]: 0%
- Inhibition % (residual enzyme activity, fluorescent substrate) [6]: 0%

B5: rACT6.2 (designed binder)
chain: MRGSHHHHHHSRHPNSPLDEENLTQENQDRGTHVDLGLASANVDFAFSLYKQLVLKAPDKNVIFSPLSISTALAFLSLGAHNTTLTEILKGLKFNLTETSEAEIHQSFQHLLRTLNQSSDELQLSMGNAMFVKEQLSLLDRFTEDAKRLYGSEAFATDFQDSAAAKKLINDYVKNGTRGKITDLIKDLDSQTMMVLVNYIFFKAKWEMPFDPQDTHQSRFYLSKKKWVMVPMMSLHHLTIPYFRDEELSCTVVELKYTGNASALFILPDQDKMEEVEAMLLPETLKRWRDSLEFREIGELYLPKFSISRDYNLNDILLQLGIEEAFTSKADLSGITGARNLAVSQVVHKAVLDVFEEGTEASAATAVKITRRSIDVETRTIVRFNRPFLMIIVPTDTQNIFFMSKVTNPKQA
notes: Recombinant human α1-antichymotrypsin variant, RSL P3-P'3 = TRRSID; N-terminal His tag, E. coli TG1; also called MD62; MD 62
- binding result [8]: no binding
- Inhibition % (residual enzyme activity, CFP-TFRSA-YFP substrate, 90 min at 37°) [7]: 0%
- Inhibition % (residual enzyme activity, fluorescent substrate) [1]: 0%
- Inhibition % (residual enzyme activity, fluorescent substrate) [2]: 100%
- Inhibition % (residual enzyme activity, fluorescent substrate) [3]: 0%
- Inhibition % (residual enzyme activity, fluorescent substrate) [4]: 100%
- Inhibition % (residual enzyme activity, fluorescent substrate) [5]: 0%
- Inhibition % (residual enzyme activity, fluorescent substrate) [6]: 0%

B6: rACT8.3 (designed binder)
chain: MRGSHHHHHHSRHPNSPLDEENLTQENQDRGTHVDLGLASANVDFAFSLYKQLVLKAPDKNVIFSPLSISTALAFLSLGAHNTTLTEILKGLKFNLTETSEAEIHQSFQHLLRTLNQSSDELQLSMGNAMFVKEQLSLLDRFTEDAKRLYGSEAFATDFQDSAAAKKLINDYVKNGTRGKITDLIKDLDSQTMMVLVNYIFFKAKWEMPFDPQDTHQSRFYLSKKKWVMVPMMSLHHLTIPYFRDEELSCTVVELKYTGNASALFILPDQDKMEEVEAMLLPETLKRWRDSLEFREIGELYLPKFSISRDYNLNDILLQLGIEEAFTSKADLSGITGARNLAVSQVVHKAVLDVFEEGTEASAATAVKIRGRSELVETRTIVRFNRPFLMIIVPTDTQNIFFMSKVTNPKQA
- Inhibition % (residual enzyme activity, CFP-TFRSA-YFP substrate, 90 min at 37°) [7]: 0%
- Inhibition % (residual enzyme activity, fluorescent substrate) [1]: 0%
- Inhibition % (residual enzyme activity, fluorescent substrate) [2]: 100%
- Inhibition % (residual enzyme activity, fluorescent substrate) [3]: 0%
- Inhibition % (residual enzyme activity, fluorescent substrate) [4]: 0%
- Inhibition % (residual enzyme activity, fluorescent substrate) [5]: 0%
- Inhibition % (residual enzyme activity, fluorescent substrate) [6]: 0%
